Laboratory results published in patent US20140370037A1 (published 2014).
Values belong to the binder of their own block, whether it stands above or below them.

Target: T1, human DLL3 antigen (human, UniProt Q9NYJ7 27-492, limits assumed)
T1 construct: also called immobilized human DLL3; recombinant human DLL3
T1 sequence (looked up): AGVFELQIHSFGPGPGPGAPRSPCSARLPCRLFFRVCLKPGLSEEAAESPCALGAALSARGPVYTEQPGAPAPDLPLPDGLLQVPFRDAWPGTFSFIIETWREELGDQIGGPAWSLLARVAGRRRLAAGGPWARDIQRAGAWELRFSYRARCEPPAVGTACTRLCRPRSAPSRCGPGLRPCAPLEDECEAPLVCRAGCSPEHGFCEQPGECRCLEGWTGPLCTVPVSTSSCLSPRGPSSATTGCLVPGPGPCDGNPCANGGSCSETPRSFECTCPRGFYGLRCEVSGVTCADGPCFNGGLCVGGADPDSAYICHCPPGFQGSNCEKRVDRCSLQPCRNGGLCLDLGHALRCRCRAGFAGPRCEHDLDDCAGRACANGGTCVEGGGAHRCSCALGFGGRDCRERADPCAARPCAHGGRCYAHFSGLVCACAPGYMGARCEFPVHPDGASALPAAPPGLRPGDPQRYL
Test: ELISA or flow cytometry screen

B1: SC16.65 (antibody, V domains shown)
VH: QVTLKESGPGILQPSQTLSLTCSFSGFSLSTSGMGVGWIRQPSGKGLEWLALIWWDDVKRYNPALKSRLTISKDASSSQVFLKIASVDTADTATYYCARIASYDYDVVYAMDYWGQGTSVSVSS
VL: QIVLTQSPALMSASPGEKVTMTCSVTSSVSYMYWYQQKPRSSPKPWIYLTSNLASGVPARFSGSGSGTSYSLTISSVEAEDAATYYCQQWRNNPFTFGSGTKVEIK
notes: murine mAb
binding result: binds

B2: SC16.72 (antibody, V domains shown)
VH: EVQLQQSGPELVKPGASVKMSCKASGYTFTSYVMHWVKQKPGQGLEWIGYINPYNDGTKYNEKFKGKATLTSDKSSSTAYMELSSLTSEDSAVYYCARLRSRAMDYWGQGTSVTVSS
VL: ENVLTQSPAIMSASLGEKVTMSCRASSSVNYMSWYQQKSDASPKLWIYYTSNLAPGVPARFSGSGSGNSYSLTISSMEGEDAATYYCQQFTSSPYTFGGGTKLEIKR
notes: murine mAb
binding result: binds

B7: SC16.73 (antibody, V domains shown)
VH: QVQLQQSGAELMKPGASVKISCKANGYTFSSYWIEWLRQRPGHGLEWIGEILPGSDNSNYNEKFKGKATFTADTSSNTAYMQLSSLTSEESAVYYCTRGLRRDGSYYYVMEHWGQGTSVTVSS
VL: DIQMTQSPSSLSASLGERVSLTCRASQDIGYSLNWLQQEPDGTIKRLIYATSSLDSGVPKRFSGSRSGSDYSLTISSLESEDFVDYYCLQYASSPWTFGGGTKLEIK
notes: murine mAb
binding result: binds

Further lines, results first:

binding result: binds
B3: SC16.80 (antibody, V domains shown)
VH: EVQLQQSGPELVKPGGSKKISCKASGYSFTGYSMNWVKQSHGKNLEWIGLINPYSGGTIYNQKFKGKATLTVDKSSSTAYMELLSLTSEDSAVYYCARRSDYPLVYWGQGTLVTVSA
VL: ETTVTQSPASLSMAIGEKVTIRCITSTDIDDDMIWYQQKPGEPPKLLISEGNTLRPGVPSRFSSSGYGTDFVFTIENMLSEDVADYYCLKRDDLPYTFGGGTQVEIKR
notes: murine mAb

binding result: binds
B4: SC16.79 (antibody, V domains shown)
VH: EVQLQQSGPELVKPGASVKISCKTSGYTFTEYTMHWVKQSHGKSLEWIGGINPNNGGTSYNQKFKGKATLTVDKSSSTAYMELRSLTSEDSAVYYCARGPAWFAYWGQGTLVTVSA
VL: DIVMSQSPSSLAVSAGEKVTMSCKSSQSLLNSRTRKNYLAWYQQKPGQSPKLLIYWASTRESGVPDRFTGSGSGTDFTLTISSVQAEDLAVYYCKQSYNLYTFGGGTKLKIKR
notes: murine mAb

binding result: binds
B5: SC16.78 (antibody, V domains shown)
VH: EVKLVESGGGLVKPGGSLKLSCAASGFTFGRYVMSWVRQTPEKKLEWVASITSGGTTYYPDSVKGRFTISRDNARNILYLQMSSLRSEDTAMYYCARVYYHYDDIFAYWGQGTLVTVSA
VL: DIKMTQSPSSMYASLGERVTITCKASQDINSYLSWFQQKPGRSPKTLIYRANRLVDGVPSRFSGSGSGQDYSLTISSLDYEDMGIYYCLQYDEFPFTFGSGTKLEIK
notes: murine mAb

binding result: binds
B6: SC16.7 (antibody, V domains shown)
VH: EVQLQQSGPELVKPGASVKISCKASGYSFTGYKMHWVKQSHVKSLEWIGRINPYNGATSYNQNFKDKATLTVDKSSSTAYMDLHSLTSEDSAVYFCARGDYRYDWFAYWGQGTLVTVSA
VL: NIMMTQSPSSLAVSAGEKVTMSCKSSQSVLYSSNQKNYLAWYQQKPGQSPKLLIYWASTRESGVPDRFTGSGSGTDFTLTISTVQVEDLAVYYCHQYLSSWTFGGGTKLEIK
notes: murine mAb

binding result: binds
B8: SC16.67 (antibody, V domains shown)
VH: EVQLVETGGGLVQPKGSLKLSCAVSAFTFTTYAMNWVRQAPGKGLEWVARIRNKSNNYATYYADSVKDRFTISRDDSQSMLYLQMNNLKIEDTAMYYCVFYYDYVYWGQGTLVTVSA
VL: QAVVTQESALTTSPGETVTLTCRSSTGAVTTSNYANWIQEKPDHLFTGLIGGTNNRAPGVPARFSGSLIGDKAALTITGAQTEDEAIYFCGLWYSNHLVFGGGTKLTVL
notes: murine mAb
